Test results taken from the supplement of paper PMC10065799, “High-throughput profiling of sequence recognition by tyrosine kinases and SH2 domains using bacterial peptide display” (eLife, 2023).

Columns and labels:
Grb2 SH2 = Grb2 SH2 (UniProt P62993); experiment: SH2 binding enrichment of the phosphorylated peptide, bacterial display (enrichment ratio); higher = better substrate or ligand; peptides without Tyr show the background
SHP2-C SH2 = experiment: as above
c-Src SH2 = experiment: as above
Fer (mouse) = experiment: phosphorylation enrichment, bacterial display (enrichment ratio); higher = better substrate or ligand; peptides without Tyr show the background
Fes = Fes (UniProt P07332); experiment: as above
Hck = Hck (UniProt P08631); experiment: as above
EPHB2 = EPHB2 (UniProt P29323); experiment: as above
MERTK = MERTK (UniProt Q12866); experiment: as above
EPHB1 = EPHB1 (UniProt P54762); experiment: as above
FGFR1 = FGFR1 (UniProt P11362); experiment: as above
Jak2 = Jak2 (UniProt O60674); experiment: as above
FGFR3 = FGFR3 (UniProt P22607); experiment: as above
Fyn = Fyn (UniProt P06241); experiment: as above
c-Abl (mouse) = experiment: as above
c-Src = experiment: as above
AncSZ = experiment: as above
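Throughout, for SH2 binding enrichment of the phosphorylated peptide, bacterial display: peptide library displayed on the E. coli surface as eCPX fusions, selected cells deep-sequenced, score is each peptide's frequency after selection divided by its frequency in the input.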
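Throughout, for phosphorylation enrichment, bacterial display: 11-residue human phosphosite peptides and single-mutation variants displayed on the E. coli surface, counted by deep sequencing, each peptide's frequency after selection divided by its frequency in the unselected input library; frequency after pTyr selection over input frequency; kinase dosed for 20-30% of maximal phosphorylation in three min.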

Chain of Fyn (P06241 whole entry, looked up): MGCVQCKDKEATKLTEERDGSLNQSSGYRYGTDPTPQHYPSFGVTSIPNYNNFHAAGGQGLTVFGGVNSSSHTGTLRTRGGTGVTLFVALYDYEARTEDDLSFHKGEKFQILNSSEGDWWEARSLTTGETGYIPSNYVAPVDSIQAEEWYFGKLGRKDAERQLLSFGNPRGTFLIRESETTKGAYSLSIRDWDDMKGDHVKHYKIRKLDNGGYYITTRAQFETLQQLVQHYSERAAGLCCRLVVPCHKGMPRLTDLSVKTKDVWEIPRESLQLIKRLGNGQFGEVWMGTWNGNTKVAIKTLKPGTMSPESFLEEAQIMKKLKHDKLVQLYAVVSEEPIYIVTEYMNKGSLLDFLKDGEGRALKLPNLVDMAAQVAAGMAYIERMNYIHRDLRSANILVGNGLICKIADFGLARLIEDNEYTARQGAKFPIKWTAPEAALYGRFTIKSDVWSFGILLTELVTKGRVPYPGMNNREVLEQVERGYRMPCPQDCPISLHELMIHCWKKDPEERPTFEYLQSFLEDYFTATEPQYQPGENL
Chain of FGFR3 (P22607 whole entry, looked up): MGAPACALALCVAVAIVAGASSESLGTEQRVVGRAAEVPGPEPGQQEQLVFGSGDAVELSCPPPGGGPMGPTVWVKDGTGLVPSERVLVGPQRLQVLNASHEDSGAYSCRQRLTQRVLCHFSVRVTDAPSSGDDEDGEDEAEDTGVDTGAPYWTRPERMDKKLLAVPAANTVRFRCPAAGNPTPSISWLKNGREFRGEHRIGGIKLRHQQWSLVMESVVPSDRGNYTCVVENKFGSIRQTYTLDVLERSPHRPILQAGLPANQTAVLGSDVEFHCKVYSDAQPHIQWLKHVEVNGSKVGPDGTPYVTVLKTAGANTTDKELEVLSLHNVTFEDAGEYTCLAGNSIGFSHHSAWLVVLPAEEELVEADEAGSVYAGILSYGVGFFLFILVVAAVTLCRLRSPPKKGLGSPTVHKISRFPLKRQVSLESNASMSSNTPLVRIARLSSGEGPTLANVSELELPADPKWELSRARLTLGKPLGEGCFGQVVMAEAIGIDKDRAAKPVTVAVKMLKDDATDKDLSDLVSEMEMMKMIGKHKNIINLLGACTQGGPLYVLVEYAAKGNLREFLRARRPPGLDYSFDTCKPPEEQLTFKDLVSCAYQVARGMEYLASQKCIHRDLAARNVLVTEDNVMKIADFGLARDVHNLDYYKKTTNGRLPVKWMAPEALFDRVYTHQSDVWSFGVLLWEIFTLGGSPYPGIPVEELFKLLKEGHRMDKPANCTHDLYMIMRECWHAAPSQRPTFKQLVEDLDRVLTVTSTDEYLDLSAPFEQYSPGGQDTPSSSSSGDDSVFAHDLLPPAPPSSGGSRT
Chain of EPHB2 (P29323 whole entry, looked up): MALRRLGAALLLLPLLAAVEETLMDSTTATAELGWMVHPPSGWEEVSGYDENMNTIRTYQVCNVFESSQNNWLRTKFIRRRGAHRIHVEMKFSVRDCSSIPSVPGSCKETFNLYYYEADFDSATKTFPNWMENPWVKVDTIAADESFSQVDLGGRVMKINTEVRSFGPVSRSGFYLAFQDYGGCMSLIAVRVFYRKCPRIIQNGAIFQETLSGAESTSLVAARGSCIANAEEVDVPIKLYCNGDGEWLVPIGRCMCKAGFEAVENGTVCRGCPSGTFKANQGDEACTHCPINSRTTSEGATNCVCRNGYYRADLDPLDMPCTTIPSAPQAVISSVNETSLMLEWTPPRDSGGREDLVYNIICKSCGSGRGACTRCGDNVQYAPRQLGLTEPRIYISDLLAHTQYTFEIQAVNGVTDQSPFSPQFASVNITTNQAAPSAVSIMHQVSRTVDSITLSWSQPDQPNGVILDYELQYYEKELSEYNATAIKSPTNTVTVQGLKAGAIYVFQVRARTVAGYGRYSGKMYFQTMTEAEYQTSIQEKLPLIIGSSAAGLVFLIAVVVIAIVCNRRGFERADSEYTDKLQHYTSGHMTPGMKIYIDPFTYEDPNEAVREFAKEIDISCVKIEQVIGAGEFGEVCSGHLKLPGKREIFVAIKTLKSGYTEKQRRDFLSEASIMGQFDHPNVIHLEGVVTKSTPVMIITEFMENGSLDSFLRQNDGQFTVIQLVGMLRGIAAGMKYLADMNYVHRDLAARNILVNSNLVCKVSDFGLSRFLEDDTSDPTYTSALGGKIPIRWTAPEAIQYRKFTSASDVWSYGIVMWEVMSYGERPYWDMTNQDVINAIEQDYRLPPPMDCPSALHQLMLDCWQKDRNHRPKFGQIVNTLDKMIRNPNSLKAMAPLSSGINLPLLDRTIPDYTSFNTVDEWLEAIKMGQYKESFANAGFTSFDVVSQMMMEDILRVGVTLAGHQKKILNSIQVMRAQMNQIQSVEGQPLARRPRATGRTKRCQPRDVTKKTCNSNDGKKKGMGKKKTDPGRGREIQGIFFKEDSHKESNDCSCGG
Chain of FGFR1 (P11362 whole entry, looked up): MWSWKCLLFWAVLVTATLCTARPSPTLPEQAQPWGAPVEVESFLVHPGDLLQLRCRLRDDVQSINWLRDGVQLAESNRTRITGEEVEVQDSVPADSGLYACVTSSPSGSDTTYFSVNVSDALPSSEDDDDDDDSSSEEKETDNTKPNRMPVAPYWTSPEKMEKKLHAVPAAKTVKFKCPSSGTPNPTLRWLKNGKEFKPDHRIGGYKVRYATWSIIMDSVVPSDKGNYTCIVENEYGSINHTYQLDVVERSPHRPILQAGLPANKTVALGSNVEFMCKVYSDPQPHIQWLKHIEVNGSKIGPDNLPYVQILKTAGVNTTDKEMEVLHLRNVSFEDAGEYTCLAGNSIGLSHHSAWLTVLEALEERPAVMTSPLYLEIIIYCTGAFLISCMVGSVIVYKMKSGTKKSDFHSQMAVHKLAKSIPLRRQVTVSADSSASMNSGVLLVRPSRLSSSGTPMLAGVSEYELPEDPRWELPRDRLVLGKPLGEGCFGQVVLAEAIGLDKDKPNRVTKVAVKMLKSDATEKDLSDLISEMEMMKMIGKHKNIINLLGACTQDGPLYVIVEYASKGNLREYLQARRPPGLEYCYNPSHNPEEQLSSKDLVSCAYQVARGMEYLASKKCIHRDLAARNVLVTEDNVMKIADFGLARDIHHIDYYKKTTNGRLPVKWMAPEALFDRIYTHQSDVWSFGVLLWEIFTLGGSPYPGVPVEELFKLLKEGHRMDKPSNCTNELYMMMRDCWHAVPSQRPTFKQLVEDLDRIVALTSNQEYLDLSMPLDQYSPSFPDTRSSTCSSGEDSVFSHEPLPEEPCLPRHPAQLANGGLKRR
Chain of EPHB1 (P54762 whole entry, looked up): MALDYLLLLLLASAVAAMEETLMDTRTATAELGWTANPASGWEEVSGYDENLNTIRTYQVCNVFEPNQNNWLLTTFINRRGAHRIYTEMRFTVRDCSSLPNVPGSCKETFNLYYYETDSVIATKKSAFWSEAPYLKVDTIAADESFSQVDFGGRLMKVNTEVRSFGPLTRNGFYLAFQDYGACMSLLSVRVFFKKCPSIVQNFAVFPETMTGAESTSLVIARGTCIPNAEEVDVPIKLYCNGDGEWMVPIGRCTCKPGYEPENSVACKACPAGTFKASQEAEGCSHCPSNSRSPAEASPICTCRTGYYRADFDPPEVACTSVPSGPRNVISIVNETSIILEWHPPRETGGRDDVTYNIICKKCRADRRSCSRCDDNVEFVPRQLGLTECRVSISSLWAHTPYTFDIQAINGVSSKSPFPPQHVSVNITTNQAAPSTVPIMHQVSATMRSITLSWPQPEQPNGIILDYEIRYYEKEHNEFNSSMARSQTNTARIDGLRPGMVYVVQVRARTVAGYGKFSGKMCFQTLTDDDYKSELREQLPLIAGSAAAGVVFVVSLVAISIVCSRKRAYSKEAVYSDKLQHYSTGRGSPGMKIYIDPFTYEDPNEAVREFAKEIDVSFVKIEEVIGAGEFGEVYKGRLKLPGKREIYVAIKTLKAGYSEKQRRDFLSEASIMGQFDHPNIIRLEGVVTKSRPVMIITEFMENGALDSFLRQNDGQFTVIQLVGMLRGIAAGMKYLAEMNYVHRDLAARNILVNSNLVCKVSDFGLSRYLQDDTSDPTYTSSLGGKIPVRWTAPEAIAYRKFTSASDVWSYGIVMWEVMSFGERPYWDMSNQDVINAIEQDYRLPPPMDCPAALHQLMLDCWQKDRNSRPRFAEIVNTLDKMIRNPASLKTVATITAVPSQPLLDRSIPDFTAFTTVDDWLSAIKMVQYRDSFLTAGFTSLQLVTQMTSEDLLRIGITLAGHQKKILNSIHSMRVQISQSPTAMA
Chain of Hck (P08631 whole entry, looked up): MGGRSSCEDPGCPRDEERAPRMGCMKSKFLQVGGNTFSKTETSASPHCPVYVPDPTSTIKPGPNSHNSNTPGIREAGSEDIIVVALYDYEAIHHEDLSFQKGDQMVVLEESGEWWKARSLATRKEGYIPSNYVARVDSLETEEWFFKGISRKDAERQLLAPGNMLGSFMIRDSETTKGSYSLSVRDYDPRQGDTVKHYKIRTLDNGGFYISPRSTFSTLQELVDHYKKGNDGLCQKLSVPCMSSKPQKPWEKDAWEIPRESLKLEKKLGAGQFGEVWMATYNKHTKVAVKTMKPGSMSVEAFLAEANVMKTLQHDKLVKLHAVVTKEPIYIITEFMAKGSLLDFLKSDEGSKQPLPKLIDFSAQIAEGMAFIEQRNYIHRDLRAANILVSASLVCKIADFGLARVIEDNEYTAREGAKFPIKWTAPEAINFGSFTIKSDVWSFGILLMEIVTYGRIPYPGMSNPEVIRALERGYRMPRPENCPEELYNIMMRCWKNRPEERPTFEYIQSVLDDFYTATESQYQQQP
Chain of Grb2 SH2 (P62993 whole entry, looked up): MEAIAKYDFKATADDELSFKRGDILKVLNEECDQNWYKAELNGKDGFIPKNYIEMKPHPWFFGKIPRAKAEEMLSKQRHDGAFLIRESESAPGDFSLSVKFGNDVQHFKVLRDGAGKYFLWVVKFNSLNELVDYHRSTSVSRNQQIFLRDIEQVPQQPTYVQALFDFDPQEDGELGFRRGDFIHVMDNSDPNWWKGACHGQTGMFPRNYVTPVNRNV

Row | Sequence | SH2 binding enrichment (Grb2 SH2) | SH2 binding enrichment (SHP2-C SH2) | SH2 binding enrichment (c-Src SH2) | phosphorylation enrichment (Fer (mouse)) | phosphorylation enrichment (Fes) | phosphorylation enrichment (Hck) | phosphorylation enrichment (EPHB2) | phosphorylation enrichment (MERTK) | phosphorylation enrichment (EPHB1) | phosphorylation enrichment (FGFR1) | phosphorylation enrichment (Jak2) | phosphorylation enrichment (FGFR3) | phosphorylation enrichment (Fyn) | phosphorylation enrichment (c-Abl (mouse)) | phosphorylation enrichment (c-Src) | phosphorylation enrichment (AncSZ)
1 | WQQQSYLDSGI [CTNNB1_Y30] | 0.726 | 0.649 | 0.571 | 0.428 | 0.847 | 0.407 | 0.433 | 0.418 | 0.489 | 0.479 | 0.758 | 0.597 | 0.388 | 0.568 | 0.38 | 0.75
2 | YCRHNYGVGES [HLA-DRB1_Y112_V115G] | 0.936 | 0.838 | 0.823 | 0.361 | 0.913 | 0.383 | 0.473 | 0.582 | 0.492 | 0.549 | 0.65 | 0.534 | 0.487 | 0.602 | 0.552 | 0.686
3 | YGLPRYRWLTH [TSPAN12_Y143] | 0.797 | 0.723 | 0.404 | 0.411 | 0.765 | 0.543 | 0.628 | 0.492 | 0.5 | 0.572 | 0.659 | 0.475 | 0.492 | 0.512 | 0.387 | 0.841
4 | YGSGNYNDFGN [HNRNPA2B1_Y300] | 0.94 | 0.629 | 0.68 | 0.424 | 1.08 | 0.632 | 1.01 | 0.501 | 3 | 0.719 | 0.966 | 0.654 | 0.668 | 0.923 | 0.643 | 1.03
5 | YHIDHYLGKEM [G6PD_Y202_R198H] | 1.09 | 0.664 | 0.573 | 0.478 | 0.674 | 0.474 | 0.505 | 0.438 | 0.437 | 0.673 | 0.476 | 0.667 | 0.482 | 0.58 | 0.546 | 0.599
6 | YIATQYSLRPR [LBR_Y166] | 0.762 | 0.685 | 0.392 | 0.439 | 0.773 | 0.568 | 0.493 | 0.731 | 0.511 | 0.551 | 0.779 | 0.527 | 0.558 | 0.72 | 0.659 | 0.932
7 | YISLIYTNYEV [GSTP1_Y109_A114V] | 1.18 | 1.5 | 1.16 | 5.32 | 1.55 | 2.59 | 1.83 | 3.93 | 2 | 4.89 | 1.54 | 4.26 | 4.07 | 2.16 | 4.53 | 1.82
8 | YKRAVYCIIGR [NUP93_Y391] | 0.906 | 0.792 | 0.937 | 0.505 | 0.785 | 0.755 | 0.464 | 0.849 | 0.506 | 0.429 | 0.599 | 0.563 | 0.59 | 0.563 | 0.626 | 0.746
9 | YLAAIYPTVGQ [NF1_Y2508_T2507I] | 0.747 | 0.986 | 1.39 | 0.58 | 0.89 | 0.57 | 0.514 | 1.37 | 0.511 | 1.16 | 0.671 | 0.88 | 0.513 | 0.597 | 0.528 | 0.94
10 | YLEKYYKFGSR [NNMT_Y25] | 0.9 | 0.604 | 0.523 | 0.508 | 0.779 | 0.473 | 0.48 | 0.407 | 0.453 | 0.524 | 0.604 | 0.553 | 0.501 | 0.59 | 0.654 | 0.69
11 | YLENYYDLKKD [MMP3_Y42] | 0.904 | 0.821 | 0.908 | 0.759 | 1.27 | 3.17 | 3.03 | 1.81 | 6.01 | 9.43 | 1.61 | 7.09 | 3.76 | 0.957 | 2.31 | 1.83
12 | YLGRDYLETLM [DUS3L_Y610] | 0.748 | 0.803 | 0.563 | 0.637 | 1.03 | 0.829 | 0.544 | 0.524 | 0.617 | 2.74 | 1.06 | 2.29 | 0.514 | 0.898 | 0.538 | 0.937
13 | YMLYQYLKQIE [RPAP3_Y569_D564Y] | 1.94 | 2.83 | 1.44 | 6.78 | 1.11 | 5.99 | 10.5 | 8.62 | 13.3 | 6.02 | 1.85 | 4.47 | 1.56 | 1.6 | 2.25 | 1.53
14 | YNNYGYGSDGF [HNRNPH3_Y161_N163S] | 1.49 | 0.658 | 0.969 | 0.458 | 0.784 | 0.521 | 5.3 | 0.652 | 2.96 | 0.673 | 0.631 | 0.683 | 0.507 | 0.55 | 0.505 | 0.735
15 | YQASYYRRGDR [LTK_Y677_R673Q] | 0.684 | 0.442 | 0.418 | 0.403 | 0.713 | 0.57 | 0.399 | 0.523 | 0.453 | 0.411 | 0.635 | 0.526 | 0.492 | 0.641 | 0.527 | 0.685
16 | YQKDVYNIPPS [NEDD9_Y177_D178N] | 0.808 | 0.6 | 0.495 | 0.472 | 0.702 | 2.34 | 0.532 | 1.64 | 0.456 | 0.623 | 0.805 | 0.529 | 4.4 | 0.584 | 3.29 | 0.81
17 | YSKDNYKRVTG [PANK2_Y405] | 0.793 | 0.597 | 0.374 | 0.494 | 0.611 | 0.344 | 0.44 | 0.488 | 0.362 | 0.456 | 0.6 | 0.4 | 0.387 | 0.52 | 0.44 | 0.675
18 | YSKTQYNQVPS [CXADR_Y318] | 0.748 | 0.714 | 0.767 | 0.386 | 0.522 | 0.343 | 0.318 | 0.467 | 0.351 | 0.393 | 0.502 | 0.429 | 0.461 | 0.729 | 0.387 | 0.473
19 | YSQNICIQNRN [PKP2_Y631_Y631C] | 0.7 | 0.619 | 0.56 | 0.498 | 1.01 | 0.501 | 0.503 | 0.49 | 0.529 | 0.524 | 0.777 | 0.641 | 0.415 | 0.663 | 0.432 | 0.874
20 | YSTSPYLLEAA [BRIP1_Y921] | 0.657 | 1.15 | 0.629 | 0.53 | 0.931 | 1.08 | 0.518 | 1.38 | 0.544 | 0.551 | 0.694 | 0.604 | 4.67 | 0.959 | 2.21 | 0.887
21 | YTFNSYYMHWV [IGHV1-46_Y51_T49N] | 1.12 | 0.951 | 0.839 | 5.35 | 1.6 | 2.52 | 4.46 | 6.9 | 4.7 | 6.62 | 6.39 | 5.38 | 1.54 | 1.1 | 2.06 | 1.77
22 | YVSSFYHAFSG [ACTN4_Y265] | 1.2 | 1.79 | 2.2 | 0.564 | 0.884 | 2.82 | 1.41 | 8.9 | 2.21 | 3.31 | 0.895 | 2.32 | 2.76 | 1.28 | 3.68 | 1.04
23 | YYSSEYHYVGG [CTSC_Y345] | 0.929 | 1.13 | 1.98 | 4.51 | 0.945 | 6.11 | 17.6 | 12.1 | 15.5 | 17.4 | 7.76 | 16.1 | 5 | 12.8 | 4.92 | 6.21
